From patent US5861155
Numbering of substitutions follows the chain as printed. Where “and” joins values, the source holds several entries; their conditions need not be identical. Identical values can stand only once.

What was measured:
[1] = biological target: human T cell receptor with β chain variable region Vβ 5.2, on HPB-ALL cells (human); assay: 4H11-FITC competition assay, competitor label 4H11-FITC (cells not stated in the example)
[2] = biological target: human T cell receptor with β chain variable region Vβ 5.2, on HPB-ALL cells (human); assay: flow cytometry on HPB cells, TM27 purified from NSO cells
[3] = biological target: human T cell receptor with β chain variable region Vβ 5.2, on HPB-ALL cells (human); assay: flow cytometry on HPB cells, TM27 purified from CHO cells

B1: TM27 (antibody, V domains shown)
VH: QVQLQESGPGLVRPSQTLSLTCTVSGFSLTAYGVNWVRQPPGRGLEWLGMIWGDGNTDYNSALKSRVTMLKDTSKNQFSLRLSSVTAADTAVYYCARDRVTATLYAMDYWGQGSLVTVSS
VL: DIQMTQSPSSLSASVGDRVTITCSASQGISNYLNWYQQTPGKAPKLLIYYTSSLHSGVPSRFSGSGSGTDYTFTISSLQPEDIATYYCQQYSKLPRTFGQGTKLQIT
With B1 the value in the 4H11-FITC competition assay, fold against TM23 [1] was < 3 fold, the mean channel fluorescence [2] was 507 and the mean channel fluorescence [3] was 283 and 322.

B2: TM27I (antibody, V domains shown)
VH: B1 VH with L48I
VL: B1 VL
B2 was tested, and the value in the 4H11-FITC competition assay, fold against TM23 [1] was < 3 fold.
